Reference: PMC6993865 (Biochemical Journal, 2020)
“And” between values parts separate entries of the source, which are not always exact repeats. Equal values may be shown once.

Molecular target: T1, chymotrypsin-treated recombinant P. falciparum SUB1 (P. falciparum, UniProt Q8I0V0 218-688)
T1 construct: subtilisin-like protease SUB1, P. falciparum, PF3D7_0507500; recombinant, chymotrypsin-treated; also called rPfSUB1; PfSUB1
T1 sequence: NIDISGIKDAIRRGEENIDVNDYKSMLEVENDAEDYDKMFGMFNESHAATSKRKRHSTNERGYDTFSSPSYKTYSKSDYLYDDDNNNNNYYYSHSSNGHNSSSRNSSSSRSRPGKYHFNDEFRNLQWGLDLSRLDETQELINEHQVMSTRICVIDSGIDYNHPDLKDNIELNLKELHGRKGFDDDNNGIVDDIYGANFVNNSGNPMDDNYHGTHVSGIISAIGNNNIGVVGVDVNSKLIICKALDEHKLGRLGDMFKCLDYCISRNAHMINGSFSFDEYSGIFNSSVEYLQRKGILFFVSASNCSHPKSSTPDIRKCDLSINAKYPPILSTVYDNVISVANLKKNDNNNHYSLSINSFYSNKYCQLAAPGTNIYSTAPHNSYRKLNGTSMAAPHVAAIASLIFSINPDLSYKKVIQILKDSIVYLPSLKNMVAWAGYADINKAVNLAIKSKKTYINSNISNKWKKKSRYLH
Experiment: enzyme inhibition kinetics (fluorogenic peptide substrate); rSUB1-ProM (7.81-250 nM final) added to ongoing hydrolysis of SERA4st1F-6R12 (0.1 µM, well below Km) by rPfSUB1 (0.045 U in 100 µl); 25 mM Tris-HCl pH 8.2, 25 mM CHAPS, 12 mM CaCl2; 21°C; apparent tight-binding inhibition constant, Ki(app) ~ Ki
Conditions: both partners purified

B1: recombinant Plasmodium falciparum SUB1-ProM (SUB1 propeptide mimic), GST-free (natural protein)
chain: QVTPAGTVLNSNSALISRRINRRKMKNCNNNDLLKVLKMETTYNELPAHNLLMSSKNDINKLFDYINKNEELSKLMNSCGTYVYLKYLGVVIFSIKENVQISHLSEFIQYLLNKNVCIEFNQNVML
notes: SUB1-ProM, P. falciparum 3D7, PF3D7_0507400, residues 28-153 of the 153-residue protein (lacks the predicted 27-residue signal peptide); synthetic gene; also called rSUB1-ProM; PfSUB1-ProM; source: E. coli BL21(R2), purified (Glutathione Sepharose 4B, PreScission cleavage, Superdex 200)
  Ki: 5.67 nM and 5.34 nM
